Data reported in US20180298070A1, “PEPTIDE COMPOUND” (Takeda Pharmaceutical Company Limited, published 2018).
Non-standard residues stand in square brackets, D forms with d. Groups on a side chain read outwards from the residue. Primed or numbered codes have the meaning given here. No end group written: not given here. *: point of attachment. NMeY = CN[C@@H](Cc1ccc(O)cc1)C(=O)O; αMeF = C[C@](N)(Cc1ccccc1)C(=O)O; Myristoyl = CCCCCCCCCCCCCC(=O)*; Undecanoyl = CCCCCCCCCCC(=O)*; Lauroyl = CCCCCCCCCCCC(=O)*; Decanoyl = CCCCCCCCCC(=O)*; dIva = CC[C@@](C)(N)C(=O)O; Iva = CC[C@](C)(N)C(=O)O; PEG2′ = not defined here; PEG4′ = not defined here; Hexanoyl = CCCCCC(=O)*; Aib = CC(C)(N)C(=O)O

T1: human GLP-1R (human), P43220
T1 chain: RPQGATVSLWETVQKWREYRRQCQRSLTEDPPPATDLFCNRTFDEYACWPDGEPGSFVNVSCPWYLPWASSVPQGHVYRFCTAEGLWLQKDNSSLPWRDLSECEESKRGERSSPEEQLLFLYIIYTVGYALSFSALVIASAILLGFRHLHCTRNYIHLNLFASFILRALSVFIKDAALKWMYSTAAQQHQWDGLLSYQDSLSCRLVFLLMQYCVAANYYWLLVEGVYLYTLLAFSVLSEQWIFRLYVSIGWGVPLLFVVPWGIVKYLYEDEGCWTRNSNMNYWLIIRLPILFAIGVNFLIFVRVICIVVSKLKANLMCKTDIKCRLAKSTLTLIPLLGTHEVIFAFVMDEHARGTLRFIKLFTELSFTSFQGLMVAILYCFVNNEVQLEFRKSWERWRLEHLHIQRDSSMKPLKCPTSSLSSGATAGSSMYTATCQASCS

T2: human GIPR (human), P48546
T2 chain: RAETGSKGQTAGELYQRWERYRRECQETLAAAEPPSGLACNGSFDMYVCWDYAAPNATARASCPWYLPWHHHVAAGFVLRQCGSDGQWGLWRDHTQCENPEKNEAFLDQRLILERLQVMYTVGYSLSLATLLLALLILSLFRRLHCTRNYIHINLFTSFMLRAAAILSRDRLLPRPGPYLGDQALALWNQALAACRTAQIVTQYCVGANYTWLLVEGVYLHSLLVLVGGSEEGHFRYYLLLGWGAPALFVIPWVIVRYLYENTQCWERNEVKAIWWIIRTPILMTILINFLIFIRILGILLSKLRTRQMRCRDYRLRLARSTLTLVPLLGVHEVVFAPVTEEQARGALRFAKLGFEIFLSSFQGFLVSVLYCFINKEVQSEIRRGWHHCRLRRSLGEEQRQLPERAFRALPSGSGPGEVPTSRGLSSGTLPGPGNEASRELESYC


Assays:
[1] = target: T1, human GLP-1R (human), P43220
[2] = target: T2, human GIPR (human), P48546

Row | Binder | Agonist activity (EC50, M) [1] [M] | Agonist activity (EC50, M) [2] [M]
1 | Y[Aib]EGTFISDYSK([PEG(2)-Lauroyl])ALDRIHQQDFVNWLLAQRPSSGAPPPS (ends and bridges not checked) [Compound 175] | > 1e-06 | 3.5e-12
2 | Me-Y[Aib]EGTFISDYSIALDRIAQQNFVNW[Iva]LAQRPSSGAPPPSR (not fully specified (residue 1, C-terminus); ends and bridges not checked) [Compound 133] | > 1e-06 | 1.7e-12
3 | Me-Y[Aib]EGTFISDYSIALDRIAQ[Aib]D[αMeF]VNWLLAQRPSSGAPPPSR (not fully specified (residue 1, C-terminus); ends and bridges not checked) [Compound 135] | > 1e-06 | 1.8e-12
4 | [NMeY][Aib]EGTFISDYSI[dIva]LDRIHQQDFVNWLLAQRPSSGAPPPSR (not fully specified (N-terminus, C-terminus); ends and bridges not checked) [Compound 144] | > 1e-06 | 2.2e-12
5 | Y[Aib]EGTFISDYSK([PEG2′-Lauroyl])ALDR[Aib]AQQD[αMeF]VNWLLAQRPSSGAPPPS (not fully specified (C-terminus); ends and bridges not checked) [Compound 213] | 5.4e-08 | 3.1e-12
6 | Y[Aib]EGTFISDYSK([PEG(2)-Hexanoyl])ALDRIHQQDFVNWLLAQRPSSGAPPPS (ends and bridges not checked) [Compound 174] | > 1e-06 | 4.2e-12
7 | Y[Aib]EGTVVSLYSI[Aib]LDKQAQ[Aib]EFVKWLLKGK([PEG(2)-Pal]) (ends and bridges not checked) [Compound 162] | > 1e-06 | 2.7e-10
8 | Y[Aib]EGTFISDYSK([PEG2′-Undecanoyl])ALDRIAQQDFVNWLLAQRPSSGAPPPSR (ends and bridges not checked) [Compound 183] | 3.3e-08 | 3.4e-12
9 | Y[Aib]EGTFISDYSK([PEG2′-Lauroyl])ALDRIAQQDFVNWLLAQRPSSGAPPPSR (ends and bridges not checked) [Compound 184] | 3e-08 | 3.6e-12
10 | Y[Aib]EGTFISDYSK([PEG(2)-Lauroyl])ALDRIAQQDFVNWLLAQRPSSGAPPPS (ends and bridges not checked) [Compound 192] | 1.5e-08 | 6.5e-12
11 | Y[Aib]EGTFISDYSK([PEG(4)-Pal])ALDRIAQQDFVNWLLAQRPSSGAPPPSR (ends and bridges not checked) [Compound 190] | > 1e-06 | 2.1e-11
12 | [NMeY][Aib]EGTFISDYSIALDRIHQQD[αMeF]VNWLLAQRPSSGAPPPSR (not fully specified (N-terminus, C-terminus); ends and bridges not checked) [Compound 141] | > 1e-06 | 1.9e-12
13 | [NMeY][Aib]EGTFISDYSIALDRIHQ[Aib]NFVNWLLAQRPSSGAPPPSR (not fully specified (N-terminus, C-terminus); ends and bridges not checked) [Compound 142] | > 1e-06 | 2.3e-12
14 | Y[Aib]EGTFISDYSK([PEG2′-Decanoyl])ALDRIAQQDFVNWLLAQRPSSGAPPPSR (ends and bridges not checked) [Compound 182] | 4.8e-08 | 3.3e-12
15 | Y[Aib]EGTFISDYSK([PEG(2)-Lauroyl])[dIva]LDRIAQQDFVNWLLAQRPSSGAPPPS (ends and bridges not checked) [Compound 206] | > 1e-06 | 2.1e-11
16 | Ac-Y[Aib]EGTFISDYSIALDRIAQ[Aib]S[αMeF]VNW[Iva]LAQRPSSGAPPPSR (ends and bridges not checked) [Compound 155] | > 1e-06 | 1.7e-12
17 | Y[Aib]EGTFISDYSK([PEG(2)-Lauroyl])ALDRIHQQD[αMeF]VNWLLAQRPSSGAPPPS (ends and bridges not checked) [Compound 208] | > 1e-06 | 6.1e-12
18 | Y[Aib]EGTFISDYSK([PEG2′-Lauroyl])ALDRIHQ[Aib]N[αMeF]VNW[Iva]LAQRPSSGAPPPS (not fully specified (C-terminus); ends and bridges not checked) [Compound 216] | 1.5e-07 | 4.8e-12
19 | Y[Aib]EGTFISDYSK([PEG(2)-Lauroyl])ALDRIHQ[Aib]NFVNWLLAQRPSSGAPPPS (ends and bridges not checked) [Compound 209] | > 1e-06 | 4.3e-12
20 | [NMeY][Aib]EGTFISDYSI[dIva]LDRIAQQSFVNWLLAQRPSSGAPPPSR (not fully specified (N-terminus, C-terminus); ends and bridges not checked) [Compound 138] | > 1e-06 | 2.2e-12
21 | Y[Aib]EGTFISDYSK([PEG(2)-Lauroyl])ALDR[Aib]AQQDFVNWLLAQRPSSGAPPPSR (ends and bridges not checked) [Compound 198] | 2.8e-08 | 4.5e-12
22 | Y[Aib]EGTFISDYSK([PEG(2)-Lauroyl])ALDRIAQQD[αMeF]VNWLLAQRPSSGAPPPS (ends and bridges not checked) [Compound 202] | 1.8e-07 | 4.6e-12
23 | Y[Aib]EGTFISDYSK([PEG4′-Lauroyl])ALDRIAQQDFVNWLLAQRPSSGAPPPSR (ends and bridges not checked) [Compound 189] | 2.7e-08 | 6.8e-12
24 | Me-Y[Aib]EGTFISDYSI[dIva]LDRIHQ[Aib]NFVNW[Iva]LAQRPSSGAPPPSR (not fully specified (residue 1, C-terminus); ends and bridges not checked) [Compound 147] | > 1e-06 | 1.5e-12
25 | Y[Aib]EGTFISDYSK([PEG(2)-Pal])ALDRIHQQDFVNWLLAQRPSSGAPPPS (ends and bridges not checked) [Compound 172] | > 1e-06 | 2e-12
26 | Y[Aib]EGTFISDYSK([PEG2′-Lauroyl])ALDR[Aib]AQ[Aib]NFVNW[Iva]LAQRPSSGAPPPS (not fully specified (C-terminus); ends and bridges not checked) [Compound 211] | 2.6e-08 | 3.4e-12
27 | Y[Aib]EGTFISDYSK([PEG2′-Myristoyl])ALDRIAQQDFVNWLLAQRPSSGAPPPSR (ends and bridges not checked) [Compound 186] | 1.3e-08 | 6.4e-12
28 | Ac-Y[Aib]EGTFISDYSIALDR[Aib]HQ[Aib]NFVNW[Iva]LAQRPSSGAPPPSR (ends and bridges not checked) [Compound 156] | > 1e-06 | 4.8e-12
